Data: patent US20180237502A1

B1: murine monoclonal antibody 16G8 (antibody, V domains shown)
VH: EVQLQESGPGLVKPGASVKISCKASGYSFTGYYMNWVKQSPEKSLEWIGEINPSTGGTTYNQKFKAKATLTVDKSSSTAYMQLKSLTSEDSAVYYCVRYSHYYGSGSWYFDVWGTGTTVTVSS
VL: DIQMTQSPASLSASVGETVTITCRASENIYSNLAWYQQKQGKSPQLLVNAATNLADGVPSRFSGSGSGTQFSLKINSLQPEDFGSYYCQHFYVTPYMFGSGTKLEIKR
B2: murine monoclonal antibody 17C6 (antibody, V domains shown)
VH: EVQLQESGPGLVQPSQSLSITCTVSGFSLTSYGVHWVRQSPGKGLEWLGVIWSGGSTDYNAAFISRLSISKDNSKSQVFFKMNSLQADDTAIYYCARNWFDYDNYYSMDYWGQGTSVTVSS
VL: DIQMTQTTSSLSASLGDRVTISCRASQDISNYLNWYQQKPDGTVKLLIYYTSRLHSGVPSRFSGSGSGTDFSLTISNQEPEDIATYYCQQYSNLPWTFGGGTKLEIKR
B3: murine monoclonal antibody 21B2 (antibody, V domains shown)
VH: EVQLQESGAELVRPGASVTLSCKTSGYTFTDYEMHWVKQTPVHGLEWIGAIDPETGGTAYNQKFKGKATLTADKSSSTAYMELSRLTSEDSAVYYCTGNYATDYWGQGTSVTVSS
VL: DIVMSQSPSSLAVSAGEKVTMSCKSSQSLFNSRSRKNYLAWYQLKPGQSPKLLIYWASTRESGVPDRFTGSGSGTDFTLTISSVQAEDLAVYYCKQSNYLWTFGGGTKLEIKR
B4: murine monoclonal antibody 2D8 (antibody, V domains shown)
VH: EVQLQESGGELVRPGTSVKISCKASGYTFTNFWLGWIKERPGHGLEWIGDIYPGGHYTNYNENFKGKATLTADTSSNTAYMQVSSLTSEDSAVYFCFTQYYDMDYWGQGTSVTVSS
VL: not shown
B5: murine monoclonal antibody 8C4 (antibody, V domains shown)
VH: EVQLQESGPELKKPGETVKISCKASGYTFTTYGMSWVKQAPGKGLKWMGRINTYSGVPTYADEFKGRFAFSLENSASTAYLQINNLKNEDTATYFCARGDGGHWFANWGQGTLVTVSA
VL: DIQMTQSPSSLSASLGGKVTITCKASQDINKNIAWYQHKPGKGPRLLIWYKSALQPGIPSRFSGSGSGRDYSFSISNLEPEDIATYSCLQYDNLPPTFGGGTKLEIKR

Key:
Details in all cases: remark: other sources report otherwise
[1] = target: EBOV GPddmuc (Ebola virus (EBOV)), Q05320
[2] = target: SUDV GPddmuc (Sudan virus (SUDV)), Q66814
[3] = target: MARV GPddmuc (Marburg virus (MARV)), P35253

| Binder | EC50 [1] | EC50 [2] | EC50 [3] |
| --- | --- | --- | --- |
| B1 | 1.23 µg/mL | 0.22 µg/mL | – |
| B2 | 0.03 µg/mL | 0.03 µg/mL | – |
| B3 | > 10 µg/mL | – | 0.0307 µg/mL |
| B4 | 26.2 µg/mL | > 10 µg/mL | 0.0573 µg/mL |
| B5 | 0.21 µg/mL | 0.06 µg/mL | – |
